Test results from publication PMC9636186 (Nature Communications, 2022).

Molecular target: ItcR itaconate-binding domain (IBD) (ItcR truncation of residues 80-292)
Experiment: SEC-MALS

## ItcR itaconate-binding domain (IBD) (ItcR truncation of residues 80-292) (domain or fragment)
  stoichiometry N: 2
